# Data: patent US20140179594A1, “STREPTOCOCCUS BACTERIOPHAGE LYSINS FOR TREATMENT OF GRAM POSITIVE BACTERIA IN COMPANION ANIMALS AND LIVESTOCK” (priority 2011, published 2014)
# Read-outs that look alike come from different tables or passages of the source.
# Columns and labels:
# Assay type in all cases: cell-based
# E. faecium EFSK2 = assay: ΔPlySs1 OD600 lysis, 1 hr
# S. mutans U159 = assay: ΔPlySs1 OD600 lysis, 1 hr
# S. oralis 35037 = assay: ΔPlySs1 OD600 lysis, 1 hr
# S. suis 7711 (ST7) = assay: ΔPlySs1 CFU analysis; details: 1 hr
# Experimental: (§1) Given the above experiments, the following optimal buffering conditions were employed for all further in vitro experiments with ΔPlySs1: 20 mM phosphate buffer, pH=7.8, 2 mM EDTA. A range of lysin concentrations, from 6.5-130 μg/ml, were introduced to live S. suis cells in this buffer. Three strains were considered particularly relevant: 7711, the serotype 7 strain that encodes PlySs1; 5735, the serotype 2 reference strain; and 7997, a highly virulent serotype 9 strain. In terms of bacterial viability, only the highest PlySs1-concentration (130 μg/ml) led to a >90% decrease in CFUs for 7711, S735, and 7997 after 1 hr treatment (TABLE 2). The lysin was also tested against actively-dividing cells in broth culture (strain 7711) (FIG. 20).
# (§2) For two ΔPlySs1 concentrations (130 and 13 μg/ml), CFU analysis was conducted on S. suis strains 5735, 7997, and 7711 after 1 hr treatment (optimal buffering conditions). In each experiment, the percentage-decrease in CFUs was determined for the treated sample versus the untreated. The range of the values observed (across 3 independent experiments) is reported here for each strain. The serotype of each strain is indicated in parentheses.
# S. suis 5735 (ST2) = assay: ΔPlySs1 CFU analysis; details: 1 hr
# Experimental: as §1, §2
# S. suis 7997 (ST9) = assay: ΔPlySs1 CFU analysis; details: 1 hr
# Experimental: as §1, §2
# B. anthracis ΔSterne = test system: B. anthracis ΔSterne
# B. subtilis SL4 = assay: ΔPlySs1 OD600 lysis, 1 hr
# S. suis 8076 (ST9) = assay: ΔPlySs1 OD600 lysis, 1 hr
# Experimental: as §1
# (§3) ΔPlySs1 was further tested against a panel of 19 other S. suis strains of diverse serotypes, as well as other species of Gram-positive bacteria. The same lysin concentrations were used as above. For each dosage, the observed lysis values after 1 hr are listed in TABLE 3 and TABLE 4, and the information is summarized graphically in FIG. 21.
# S. suis ST7 = assay: ΔPlySs1 OD600 lysis, 1 hr
# Experimental: as §1, §3
# S. suis 6112 (ST1) = assay: ΔPlySs1 OD600 lysis, 1 hr
# Experimental: as §1, §3
# S. suis ST14 = assay: ΔPlySs1 OD600 lysis, 1 hr
# Experimental: as §1, §3
# S. suis ST8 = assay: ΔPlySs1 OD600 lysis, 1 hr
# Experimental: as §1, §3
# S. suis ST11 = assay: ΔPlySs1 OD600 lysis, 1 hr
# Experimental: as §1, §3
# S. suis ST4 = assay: ΔPlySs1 OD600 lysis, 1 hr
# Experimental: as §1, §3
# S. suis ST5 = assay: ΔPlySs1 OD600 lysis, 1 hr
# Experimental: as §1, §3
# S. suis ST10 = assay: ΔPlySs1 OD600 lysis, 1 hr
# Experimental: as §1, §3
# S. suis strain 7711 = assay: ΔPlySs1 growth inhibition in BHI broth; details: strain 7711 in BHI broth, overnight
# Experimental: The optical density of each sample was measured continuously overnight in 96-well plate format. Overall, bacterial growth was delayed in a dose-dependent manner. However, for enzyme-concentrations that were sufficient to induce lysis in buffered solutions (130 and 50 μg/ml), the effect was quite minimal here. […] For all of the treated samples, one will note that the final optical densities are actually higher than that of the untreated sample. This is an artifact of the accumulation of aggregated bacterial debris that occurred in the presence of lytic enzyme.
# as §1
# S. aureus RN4220 = assay: ΔPlySs1 OD600 lysis, 1 hr
molecule,measurement,setting,value
"ΔPlySs1: truncated PlySs1 lysin with N-terminal enzymatic and central binding domains, N-terminal 254 amino acids, SEQ ID NO:2 (protein, listed as Streptococcus suis) MTINLETSIRWMSDRVGKVSYSMDYRNGPNSYDCSSAVYYALMAGGAISAGWAVNTEYMHDWLIRNGYVLVAENKPFNAQRHDVCILGKRGYSSGAGGHVVIFVDNVNVIHCNYARNGISIDNYNQVHRGMYYYLYRPANQPSISNKSLDQLVKETLAGVHGNGDTRKASLGSQYEAVMAVINGKASASEKSDEELAREVLAGKHGAGEDRKRSLGPRYEPVQAKVNELLKAKEKPSETAKNEPQTVQFKEDGDL",1-hour treated/untreated OD600-ratio,E. faecium EFSK2; 6.5 μg/ml,0.85
same,1-hour treated/untreated OD600-ratio,E. faecium EFSK2; 13 μg/ml,0.67
same,1-hour treated/untreated OD600-ratio,E. faecium EFSK2; 30 μg/ml,0.52
same,1-hour treated/untreated OD600-ratio,E. faecium EFSK2; 65 μg/ml,0.32
same,1-hour treated/untreated OD600-ratio,E. faecium EFSK2; 130 μg/ml,0.13
same,1-hour treated/untreated OD600-ratio,S. mutans U159; 6.5 μg/ml,0.95
same,1-hour treated/untreated OD600-ratio,S. mutans U159; 13 μg/ml,0.99
same,1-hour treated/untreated OD600-ratio,S. mutans U159; 30 μg/ml,0.94
same,1-hour treated/untreated OD600-ratio,S. mutans U159; 65 μg/ml,0.76
same,1-hour treated/untreated OD600-ratio,S. mutans U159; 130 μg/ml,0.85
same,1-hour treated/untreated OD600-ratio,S. oralis 35037; 6.5 μg/ml,0.30
same,1-hour treated/untreated OD600-ratio,S. oralis 35037; 13 μg/ml,0.13
same,1-hour treated/untreated OD600-ratio,S. oralis 35037; 30 μg/ml,0.08
same,1-hour treated/untreated OD600-ratio,S. oralis 35037; 65 μg/ml,0.07
same,1-hour treated/untreated OD600-ratio,S. oralis 35037; 130 μg/ml,0.04
same,"percentage-decrease in CFUs, treated versus untreated (range of 3 experiments)",S. suis 7711 (ST7); 13 μg/ml,0%-35.6%
same,"percentage-decrease in CFUs, treated versus untreated (range of 3 experiments)",S. suis 7711 (ST7); 130 μg/ml,95.3%-99.2%
same,"percentage-decrease in CFUs, treated versus untreated (range of 3 experiments)","S. suis 7711 (ST7); 130 μg/ml, listed as PlySs1",> 90%
same,"percentage-decrease in CFUs, treated versus untreated (range of 3 experiments)",S. suis 5735 (ST2); 13 μg/ml,80.4%-92.6%
same,"percentage-decrease in CFUs, treated versus untreated (range of 3 experiments)",S. suis 5735 (ST2); 130 μg/ml,95.4%-99.5%
same,"percentage-decrease in CFUs, treated versus untreated (range of 3 experiments)","S. suis 5735 (ST2); 130 μg/ml, listed as PlySs1",> 90%
same,"percentage-decrease in CFUs, treated versus untreated (range of 3 experiments)",S. suis 7997 (ST9); 13 μg/ml,16.8%-30.3%
same,"percentage-decrease in CFUs, treated versus untreated (range of 3 experiments)",S. suis 7997 (ST9); 130 μg/ml,89.9%-93.9%
same,"percentage-decrease in CFUs, treated versus untreated (range of 3 experiments)","S. suis 7997 (ST9); 130 μg/ml, listed as PlySs1",> 90%
same,1-hour treated/untreated OD600-ratio,B. anthracis ΔSterne; 6.5 μg/ml,1.02
same,1-hour treated/untreated OD600-ratio,B. anthracis ΔSterne; 30 μg/ml,1.02
same,1-hour treated/untreated OD600-ratio,B. anthracis ΔSterne; 65 μg/ml,0.98
same,1-hour treated/untreated OD600-ratio,B. anthracis ΔSterne; 130 μg/ml,0.90
same,1-hour treated/untreated OD600-ratio,B. subtilis SL4; 6.5 μg/ml,1.07
same,1-hour treated/untreated OD600-ratio,B. subtilis SL4; 13 μg/ml,1.05
same,1-hour treated/untreated OD600-ratio,B. subtilis SL4; 30 μg/ml,1.04
same,1-hour treated/untreated OD600-ratio,B. subtilis SL4; 65 μg/ml,1.03
same,1-hour treated/untreated OD600-ratio,B. subtilis SL4; 130 μg/ml,0.96
same,1-hour treated/untreated OD600-ratio,S. suis 8076 (ST9); 6.5 μg/ml,0.52
same,1-hour treated/untreated OD600-ratio,S. suis 8076 (ST9); 13 μg/ml,0.40
same,1-hour treated/untreated OD600-ratio,S. suis 8076 (ST9); 30 μg/ml,0.21
same,1-hour treated/untreated OD600-ratio,S. suis 8076 (ST9); 65 μg/ml,0.14
same,1-hour treated/untreated OD600-ratio,S. suis 8076 (ST9); 130 μg/ml,0.04
same,1-hour treated/untreated OD600-ratio,S. suis ST7; 6.5 μg/ml,0.65
same,1-hour treated/untreated OD600-ratio,S. suis ST7; 13 μg/ml,0.47
same,1-hour treated/untreated OD600-ratio,S. suis ST7; 30 μg/ml,0.34
same,1-hour treated/untreated OD600-ratio,S. suis ST7; 65 μg/ml,0.22
same,1-hour treated/untreated OD600-ratio,S. suis ST7; 130 μg/ml,0.11
same,1-hour treated/untreated OD600-ratio,S. suis 6112 (ST1); 6.5 μg/ml,0.14
same,1-hour treated/untreated OD600-ratio,S. suis 6112 (ST1); 13 μg/ml,0.11
same,1-hour treated/untreated OD600-ratio,S. suis 6112 (ST1); 30 μg/ml,0.06
same,1-hour treated/untreated OD600-ratio,S. suis 6112 (ST1); 65 μg/ml,0.02
same,1-hour treated/untreated OD600-ratio,S. suis 6112 (ST1); 130 μg/ml,0.01
same,1-hour treated/untreated OD600-ratio,S. suis ST14; 6.5 μg/ml,0.79
same,1-hour treated/untreated OD600-ratio,S. suis ST14; 13 μg/ml,0.57
same,1-hour treated/untreated OD600-ratio,S. suis ST14; 30 μg/ml,0.33
same,1-hour treated/untreated OD600-ratio,S. suis ST14; 65 μg/ml,0.15
same,1-hour treated/untreated OD600-ratio,S. suis ST14; 130 μg/ml,0.06
same,1-hour treated/untreated OD600-ratio,S. suis ST8; 6.5 μg/ml,0.25
same,1-hour treated/untreated OD600-ratio,S. suis ST8; 13 μg/ml,0.12
same,1-hour treated/untreated OD600-ratio,S. suis ST8; 30 μg/ml,0.06
same,1-hour treated/untreated OD600-ratio,S. suis ST8; 65 μg/ml,0.03
same,1-hour treated/untreated OD600-ratio,S. suis ST8; 130 μg/ml,0.03
same,1-hour treated/untreated OD600-ratio,S. suis ST11; 6.5 μg/ml,0.64
same,1-hour treated/untreated OD600-ratio,S. suis ST11; 13 μg/ml,0.47
same,1-hour treated/untreated OD600-ratio,S. suis ST11; 30 μg/ml,0.32
same,1-hour treated/untreated OD600-ratio,S. suis ST11; 65 μg/ml,0.19
same,1-hour treated/untreated OD600-ratio,S. suis ST11; 130 μg/ml,0.07
same,1-hour treated/untreated OD600-ratio,S. suis ST4; 6.5 μg/ml,0.63
same,1-hour treated/untreated OD600-ratio,S. suis ST4; 13 μg/ml,0.47
same,1-hour treated/untreated OD600-ratio,S. suis ST4; 30 μg/ml,0.32
same,1-hour treated/untreated OD600-ratio,S. suis ST4; 65 μg/ml,0.22
same,1-hour treated/untreated OD600-ratio,S. suis ST4; 130 μg/ml,0.12
same,1-hour treated/untreated OD600-ratio,S. suis ST5; 6.5 μg/ml,0.78
same,1-hour treated/untreated OD600-ratio,S. suis ST5; 13 μg/ml,0.59
same,1-hour treated/untreated OD600-ratio,S. suis ST5; 30 μg/ml,0.39
same,1-hour treated/untreated OD600-ratio,S. suis ST5; 65 μg/ml,0.22
same,1-hour treated/untreated OD600-ratio,S. suis ST5; 130 μg/ml,0.10
same,1-hour treated/untreated OD600-ratio,S. suis ST10; 6.5 μg/ml,0.85
same,1-hour treated/untreated OD600-ratio,S. suis ST10; 13 μg/ml,0.72
same,1-hour treated/untreated OD600-ratio,S. suis ST10; 30 μg/ml,0.55
same,1-hour treated/untreated OD600-ratio,S. suis ST10; 65 μg/ml,0.44
same,1-hour treated/untreated OD600-ratio,S. suis ST10; 130 μg/ml,0.28
same,growth inhibition of actively-dividing cells,S. suis strain 7711,could not inhibit S. suis growth outright
same,1-hour treated/untreated OD600-ratio,S. aureus RN4220; 6.5 μg/ml,0.89
same,1-hour treated/untreated OD600-ratio,S. aureus RN4220; 13 μg/ml,0.78
same,1-hour treated/untreated OD600-ratio,S. aureus RN4220; 30 μg/ml,0.55
same,1-hour treated/untreated OD600-ratio,S. aureus RN4220; 65 μg/ml,0.31
same,1-hour treated/untreated OD600-ratio,S. aureus RN4220; 130 μg/ml,0.10
